The labels stand for the following.
T1: MBP-tagged CKL6 (casein kinase1-like 6) (Arabidopsis thaliana, UniProt Q8LPJ1 1-479)
T1 sequence (looked up): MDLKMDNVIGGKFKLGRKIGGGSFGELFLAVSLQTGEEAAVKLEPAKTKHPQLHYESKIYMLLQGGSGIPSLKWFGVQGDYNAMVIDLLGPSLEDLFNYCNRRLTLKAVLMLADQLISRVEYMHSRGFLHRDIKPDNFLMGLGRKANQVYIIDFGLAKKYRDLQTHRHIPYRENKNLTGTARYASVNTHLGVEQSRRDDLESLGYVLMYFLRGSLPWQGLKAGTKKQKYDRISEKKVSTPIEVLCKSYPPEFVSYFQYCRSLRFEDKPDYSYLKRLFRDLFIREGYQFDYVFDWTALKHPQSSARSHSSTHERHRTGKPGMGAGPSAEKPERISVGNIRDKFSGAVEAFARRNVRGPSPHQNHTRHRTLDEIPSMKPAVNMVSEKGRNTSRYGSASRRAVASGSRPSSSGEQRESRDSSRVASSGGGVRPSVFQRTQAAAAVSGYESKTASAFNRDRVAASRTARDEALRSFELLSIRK

B1: FRA1 C-terminal tail fragment (amino acids 616-1035), C-terminal 6xHis fusion (domain or fragment, Arabidopsis thaliana, UniProt Q8GS71 616-1035, looked up)
chain: ARRLQDEIQSIKAQKVQLQHRMKQEAEQFRQWKASREKELLQLRKEGRKSEYERHKLQALNQRQKMVLQRKTEEAAMATKRLKELLEARKSSPREHSAGTNGFGTNGQTNEKSLQRWLDHELEVMVNVHEVRHEYEKQSHVRAALAEELAVLRQVDEFAVKGLSPPRGKNGFARASSLSPNARMARISSLENMLVISSNSLVAMASQLSEAEERERAFTNRGRWNQLRSMGEAKNLLQYMFNSLAETRCQLWEKDVEIKEMKDQFKEIVGLLRQSELRRKEAEKELKLREQAIATSLGTPPSSVKHVAEDLSTPSPMTVPAQKQLKFTPGIANGKVRGPAAFLDTNKKMVPMGQVSMRKLSAVGKQGGRLWRWKRSHHQWIVQFKWKWQKPWRLSEWIRTSDETLLKSKPRLKALPNKIM
B2: MBP-tagged CKL3 (casein kinase1-like 3) (enzyme, Arabidopsis thaliana, UniProt Q93Z18 1-415, looked up)
chain: MERIIGGKYKLGRKIGGGSFGEIFLATHVDTFEIVAVKIENSKTKHPQLLYEAKLYRILEGGSGIPRIKWFGVDGTENALVMDLLGPSLEDLFVYCGRKFSPKTVLMLADQMLTRIEFVHSKGYLHRDIKPDNFLMGLGRKANQVYLIDFGLAKRYRDANTNRHIPYRENKNLTGTARYASCNTHLGIEQSRRDDLESLGYVLLYFLRGSLPWQGLKAVDKKQKYDKICEKKISTPIEVLCKNHPVEFASYFHYCHTLTFDQRPDYGFLKRLFRDLFSREGYEFDYIFDWTIIKYQQAQKSRNQSQAVPGSSNPRAMPVDTSNHRGGPNISYEAEASERVRSANAIGPSPQINNNTAAGRTPGFDHPVHKNMNMPSTSLSPAGTSKRNVGPETSNSGYGSGNRTGWTSSFMSPEK

The target in assay [1] is T1, MBP-tagged CKL6 (casein kinase1-like 6). In words: pull-down.
For assay [2], the target named is B1. In words: pull-down.

From publication doi:10.1101/760389 (bioRxiv, 2019) come the findings set out here.

B1: in assay [1], the binding result is listed as “binds”.
Turning to B2, the binding result in assay [2] is “binds”.
